The assay addresses human CD4 on cells (human) (UniProt P01730). As to the kind of experiment: cell-based or functional assay.

Substance “CE9γ4λK, chimeric anti-CD4 antibody with human gamma 4 heavy chain constant domain and human kappa light chain constant region” gave an MLR IL-2 Production (IC50) of 0.02 µg/mL and an MLR Proliferation (IC50) of 0.02 µg/mL.

(Values after patent US7452534.)
